Measurements published in PMC3392545.

Target: human STING C-terminal domain (CTD) containing residues 155 to 341 (human) (UniProt Q86WV6)
Assay: SEC

human STING C-terminal domain (CTD) containing residues 155 to 341 (from UniProt Q86WV6 155-341) (domain or fragment)
stoichiometry N: 2
